The target in assay [1] is Integrin αvβ3 (Homo sapiens) (UniProt P06756). Conditions: cited from earlier work.
In assay [2] the target is T1, chemokine domain of fractalkine (FKN-CD), wild type (UniProt P78423 25-100).
T1 construct: fractalkine (CX3CL1), N-terminal chemokine domain, printed as residues 1-76; The limits 1-76 are printed for the chemokine domain in general (introduction); also called WT FKN-CD; CX3CL1
T1 sequence (looked up): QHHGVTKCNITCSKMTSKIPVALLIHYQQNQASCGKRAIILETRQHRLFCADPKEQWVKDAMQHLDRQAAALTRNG
The experiment in a line: ELISA; FKN-CD, γC399tr, FN-H120 or FN8-11 coated on wells (5 µM in Figure 4d; GST removed from FN-H120 and FN8-11); GST-tagged S2 peptides added in PBS, 2 h at room temperature; detected with HRP-conjugated anti-GST antibody. As to conditions: both partners purified.

Ends that are not written are not given here.

Integrin αvβ3 (Homo sapiens), sequence (P06756 31-992, chain 1 of 2): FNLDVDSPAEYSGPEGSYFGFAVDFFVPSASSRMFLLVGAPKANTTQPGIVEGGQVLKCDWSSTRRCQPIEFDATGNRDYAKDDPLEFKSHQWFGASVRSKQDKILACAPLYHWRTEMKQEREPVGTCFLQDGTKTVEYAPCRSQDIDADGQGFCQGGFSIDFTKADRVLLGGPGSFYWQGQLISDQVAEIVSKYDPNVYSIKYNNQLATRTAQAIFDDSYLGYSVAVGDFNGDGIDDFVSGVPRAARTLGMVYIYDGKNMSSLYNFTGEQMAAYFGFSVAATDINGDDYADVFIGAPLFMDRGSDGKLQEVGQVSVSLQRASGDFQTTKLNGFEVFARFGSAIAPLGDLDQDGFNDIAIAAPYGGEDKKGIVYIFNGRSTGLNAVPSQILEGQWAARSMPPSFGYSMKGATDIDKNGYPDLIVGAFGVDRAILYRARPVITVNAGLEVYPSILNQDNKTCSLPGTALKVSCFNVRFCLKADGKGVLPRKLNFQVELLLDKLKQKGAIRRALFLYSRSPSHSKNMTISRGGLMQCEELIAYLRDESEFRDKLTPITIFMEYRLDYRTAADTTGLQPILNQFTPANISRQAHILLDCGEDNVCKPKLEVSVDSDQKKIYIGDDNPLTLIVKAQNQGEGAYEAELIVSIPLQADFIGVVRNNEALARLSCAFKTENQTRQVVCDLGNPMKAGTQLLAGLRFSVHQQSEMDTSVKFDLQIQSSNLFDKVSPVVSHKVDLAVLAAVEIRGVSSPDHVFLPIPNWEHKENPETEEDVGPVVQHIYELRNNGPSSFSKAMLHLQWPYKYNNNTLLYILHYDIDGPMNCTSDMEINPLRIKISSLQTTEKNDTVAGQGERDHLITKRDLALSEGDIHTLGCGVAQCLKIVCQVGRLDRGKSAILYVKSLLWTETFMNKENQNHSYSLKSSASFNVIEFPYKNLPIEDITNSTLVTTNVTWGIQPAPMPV
Integrin αvβ3 (Homo sapiens), sequence (P05106 27-718, chain 2 of 2, further chain): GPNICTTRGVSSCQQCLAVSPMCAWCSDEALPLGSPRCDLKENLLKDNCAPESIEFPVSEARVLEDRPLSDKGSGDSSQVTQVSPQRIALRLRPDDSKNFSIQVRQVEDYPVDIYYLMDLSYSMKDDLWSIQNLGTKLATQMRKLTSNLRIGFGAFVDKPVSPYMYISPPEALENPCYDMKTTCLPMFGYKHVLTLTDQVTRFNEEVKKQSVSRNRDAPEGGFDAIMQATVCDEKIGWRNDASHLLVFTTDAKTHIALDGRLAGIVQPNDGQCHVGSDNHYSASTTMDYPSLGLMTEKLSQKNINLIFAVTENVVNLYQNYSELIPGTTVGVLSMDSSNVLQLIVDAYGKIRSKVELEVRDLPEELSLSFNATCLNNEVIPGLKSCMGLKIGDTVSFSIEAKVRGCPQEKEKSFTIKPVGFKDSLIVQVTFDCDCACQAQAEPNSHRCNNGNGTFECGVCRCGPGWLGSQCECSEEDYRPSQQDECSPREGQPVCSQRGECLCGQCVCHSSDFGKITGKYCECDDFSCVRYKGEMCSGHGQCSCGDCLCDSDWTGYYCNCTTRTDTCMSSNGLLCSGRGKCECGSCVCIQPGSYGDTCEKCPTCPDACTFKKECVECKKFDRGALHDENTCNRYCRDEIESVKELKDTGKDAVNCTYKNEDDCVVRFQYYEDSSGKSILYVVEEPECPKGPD

As to “Fractalkine chemokine domain (from UniProt P78423)”, in assay [1], the Kd was 300 pM.

B1: GST fusion protein of site 2 peptide of integrin β3 (S2-β3 peptide) (peptide)
chain: QPNDGQSHVGSDNHYSASTTM
modifications: also: GST fusion protein
notes: The 6His tag was put into the BamHI site of pGEX-2T and the peptide's oligonucleotides into the BamHI/EcoRI site of the resulting vector; also called S2 peptide
As for B1, in assay [2], the binding result was “binds”.

The values are drawn from publication PMC4008574 (PLoS ONE, 2014).
